Measurements: paper PMC10699647, “Structural basis of G protein–Coupled receptor CMKLR1 activation and signaling induced by a chemerin-derived agonist” (PLOS Biology, 2023)

Assays:
CMKLR1 = details: cited from earlier work
From the text: The apparent contradictory functional roles of CMKLR1 in inflammation may be associated with the spatiotemporal regulation of the inflammation processes in cells. It is possible that in the early stage of inflammation, the CMKLR1 signaling is mainly pro-inflammatory by promoting chemotaxis and activation of DCs and macrophages, whereas at the late stage of inflammation, CMKLR1 activation can induce pro-resolving pathways to dampen inflammation. Another possibility for the differing effects of CMKLR1 signaling on inflammation is that different chemerin isoforms may activate CMKLR1 to induce dis ... || The potential roles of CMKLR1 signaling in inflammation may provide promising new opportunities for developing anti-inflammatory drugs. […] Nevertheless, the only commercially a ...

[1] = test system: primary human macrophages; assay: Macrophage differentiation assay, surface markers by flow cytometry (MFI fold-change); details: 72 hours, 10 ng/mL (each), vs M0, n = 4 donors
Experimental: Monocytes were enriched from human PBMC by CD14 beads positive selection (Miltenyi Biotec) and cultured in IMDM supplanted with 10% human AB serum (Omega Scientific, Cat# HS-20) for 7 days for them to differentiate to macrophages.
Differentiated macrophages were then replated to low-bind plate at 0.15 million cells per 24-well plate, in 500 μl medium overnight before stimulated with various condition. Human macrophage medium was used as M0 reference culture condition, while 10 ng/ml IFNg plus 10 ng/ml LPS supplement were used as M1 reference, and 10 ng/ml IL-10 supplement used as M2 reference. […] Data were acquired on Cytek Aurora flowcytometry, analysis on Flowjo. MFI quantifications were normalized to M0 condition and statistically analyzed by 2-way ANOVA, with Dunnett’s multiple comparisons test; all groups were pair analyzed with M0 group as reference.

Molecule: chemerin15: synthetic peptide corresponding to the 141–155 amino acid segment of chemerin (AGEDPHSFYFPGQFA; UniProt Q99969 141-155, looked up, fragment)
- agonism and anti-inflammatory effects (CMKLR1; CMKLR1, ref [9]): stable agonists of CMKLR1 that induce anti-inflammatory effects

Molecule: C[N+](C)(C)CCC(=O)c1cccc2ccccc12.[I-] [α-NETA]
- potency against CMKLR1 (CMKLR1; antagonist, ref [30]): low micromolar potency

B1: IL-10: 10 ng/ml IL-10 supplement used as M2 reference (protein, UniProt P22301 19-178, looked up)
Interleukin-10: SPGQGTQSENSCTHFPGNLPNMLRDLRDAFSRVKTFFQMKDQLDNLLLKESLLEDFKGYLGCQALSEMIQFYLEEVMPQAENQDPDIKAHVNSLGENLKTLRLRLRRCHRFLPCENKSKAVEQVKNAFNKLQEKGIYKAMSEFDIFINYIEAYMTMKIRN
- CD86 expression in words [1]: down-regulation
- CD163 expression in words [1]: up-regulation
- CD206 expression in words [1]: up-regulation
